Test results as given in article PMC7872222 (Chembiochem : a European journal of chemical biology, 2020).
Ends that are not written are not given here.

Assays:
GABARAP = GABARAP (human, UniProt O95166 1-117); assay: BLI
[1] = target: T1, microtubule-associated protein 1A/1B light chain 3B protein (human, UniProt Q9GZQ8 1-120); assay: fluorescence polarisation
[2] = target: T1, microtubule-associated protein 1A/1B …; assay: BLI

GABARAP, sequence (O95166 whole entry): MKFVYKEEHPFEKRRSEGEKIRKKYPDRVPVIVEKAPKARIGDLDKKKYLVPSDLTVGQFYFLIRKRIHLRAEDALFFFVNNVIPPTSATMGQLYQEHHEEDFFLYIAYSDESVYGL

B1: biotinylated K1 peptide (peptide)
peptide: DATYTWEHLAWP
HELM: PEPTIDE1{[O=C1N[C@H]2[C@H](CS[C@H]2CCCCC(=O)[*:2])N1].[bAla].[bAla].D.A.T.Y.T.W.E.H.L.A.W.P.[am]}$$$$V2.0
SMILES: CC(C)C[C@H](NC(=O)[C@H](Cc1c[nH]cn1)NC(=O)[C@H](CCC(=O)O)NC(=O)[C@H](Cc1c[nH]c2ccccc12)NC(=O)[C@@H](NC(=O)[C@H](Cc1ccc(O)cc1)NC(=O)[C@@H](NC(=O)[C@H](C)NC(=O)[C@H](CC(=O)O)NC(=O)CCNC(=O)CCNC(=O)CCCC[C@@H]1SC[C@@H]2NC(=O)N[C@@H]21)[C@@H](C)O)[C@@H](C)O)C(=O)N[C@@H](C)C(=O)N[C@@H](Cc1c[nH]c2ccccc12)C(=O)N1CCC[C@H]1C(N)=O
**Q.** How did the Kd (GABARAP) turn out when B1 was run?
**A.** 0.39 µM

B2: fluorescein-labeled K1 peptide (peptide)
peptide: Fluorescein-DATYTWEHLAWP
**Q.** Which Kd [1] does the source give for B2 here?
**A.** 1.2 µM

B3: FYCO1 peptide C1289S (peptide)
peptide: DDAVFDIITDEELSQIQEW
HELM: PEPTIDE1{[O=C1N[C@H]2[C@H](CS[C@H]2CCCCC(=O)[*:2])N1].[bAla].[bAla].D.D.A.V.F.D.I.I.T.D.E.E.L.S.Q.I.Q.E.W.[am]}$$$$V2.0
SMILES: CC[C@H](C)[C@H](NC(=O)[C@H](CCC(N)=O)NC(=O)[C@H](CO)NC(=O)[C@H](CC(C)C)NC(=O)[C@H](CCC(=O)O)NC(=O)[C@H](CCC(=O)O)NC(=O)[C@H](CC(=O)O)NC(=O)[C@@H](NC(=O)[C@@H](NC(=O)[C@@H](NC(=O)[C@H](CC(=O)O)NC(=O)[C@H](Cc1ccccc1)NC(=O)[C@@H](NC(=O)[C@H](C)NC(=O)[C@H](CC(=O)O)NC(=O)[C@H](CC(=O)O)NC(=O)CCNC(=O)CCNC(=O)CCCC[C@@H]1SC[C@@H]2NC(=O)N[C@@H]21)C(C)C)[C@@H](C)CC)[C@@H](C)CC)[C@@H](C)O)C(=O)N[C@@H](CCC(N)=O)C(=O)N[C@@H](CCC(=O)O)C(=O)N[C@@H](Cc1c[nH]c2ccccc12)C(N)=O
**Q.** For B3, which Kd [2] is on record?
**A.** 0.33 µM
